The text below walks through data of patent CN116813768A.

A value given as a limit tells only on which side of the number the result lay.

The assay deals with 大熊猫TSHβ特异序列(TSHβ-1), synthetic peptide (大熊猫 (giant panda)). As to the kind of experiment: indirect ELISA, TSHβ-1 peptide coated at 2 μg/mL, serial dilutions of purified antibody, OD450. (In general: An ELISA detects its analyte on a solid surface through an enzyme-linked reagent.)

B1: 大熊猫TSHβ单克隆抗体 (secreted by hybridoma cell line TSHB-A, CCTCC NO: C202282) (antibody, V domains shown)
VH: EVKLVESGGGLVKPGGSLKLSCAASGFIFRRYAMSWVRQTPEKRLEWVAAISSGGNIYYLDNVKGRFTISRDDARNILYLQMSSLRSEDTAMYYCARDDYDEDWYFDVWGAGTTVTVSS
VL: DVLMTQIPLSLPVSLGDQASISCRSSQSIVHSNGNTYLEWYLQKPGQSPNLLIYKVSNRFSGVPDRFSGSGSGTDFTLKISRVEAEDLGVYYCFQGSHLPPTFGGGTKLEIK
Turning to B1, the 效价 (ELISA titer) (fold dilution) was above 1e+06.
